Measured values taken from publication PMC7156492.

Molecular target: tetrameric Y-complex fragment Nup120-Nup145C-Sec13-Nup85 (NPC-II) (Myceliophthora thermophila)
Assay: mass photometry; mixture of NPC-I and NPC-II (NPC-III) diluted 10-fold from 482 nM immediately before measurement; 10 mM HEPES pH 7.5, 150 mM NaCl, 1 mM DTT, 0.1 mM EDTA; no cross-linker

tetrameric Y-complex fragment Nup120-Nup145C-Sec13-Nup85 (NPC-II) (Myceliophthora thermophila), sequence (main, as listed by the source, chain 1 of 3): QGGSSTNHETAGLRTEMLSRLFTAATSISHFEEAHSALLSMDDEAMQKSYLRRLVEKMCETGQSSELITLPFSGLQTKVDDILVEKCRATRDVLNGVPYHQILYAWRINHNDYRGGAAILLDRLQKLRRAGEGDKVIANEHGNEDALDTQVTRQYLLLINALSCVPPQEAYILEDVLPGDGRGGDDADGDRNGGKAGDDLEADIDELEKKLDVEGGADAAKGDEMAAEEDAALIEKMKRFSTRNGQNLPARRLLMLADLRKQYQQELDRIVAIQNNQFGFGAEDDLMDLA
tetrameric Y-complex fragment Nup120-Nup145C-Sec13-Nup85 (NPC-II) (Myceliophthora thermophila), sequence (partner, as listed by the source, chain 2 of 3): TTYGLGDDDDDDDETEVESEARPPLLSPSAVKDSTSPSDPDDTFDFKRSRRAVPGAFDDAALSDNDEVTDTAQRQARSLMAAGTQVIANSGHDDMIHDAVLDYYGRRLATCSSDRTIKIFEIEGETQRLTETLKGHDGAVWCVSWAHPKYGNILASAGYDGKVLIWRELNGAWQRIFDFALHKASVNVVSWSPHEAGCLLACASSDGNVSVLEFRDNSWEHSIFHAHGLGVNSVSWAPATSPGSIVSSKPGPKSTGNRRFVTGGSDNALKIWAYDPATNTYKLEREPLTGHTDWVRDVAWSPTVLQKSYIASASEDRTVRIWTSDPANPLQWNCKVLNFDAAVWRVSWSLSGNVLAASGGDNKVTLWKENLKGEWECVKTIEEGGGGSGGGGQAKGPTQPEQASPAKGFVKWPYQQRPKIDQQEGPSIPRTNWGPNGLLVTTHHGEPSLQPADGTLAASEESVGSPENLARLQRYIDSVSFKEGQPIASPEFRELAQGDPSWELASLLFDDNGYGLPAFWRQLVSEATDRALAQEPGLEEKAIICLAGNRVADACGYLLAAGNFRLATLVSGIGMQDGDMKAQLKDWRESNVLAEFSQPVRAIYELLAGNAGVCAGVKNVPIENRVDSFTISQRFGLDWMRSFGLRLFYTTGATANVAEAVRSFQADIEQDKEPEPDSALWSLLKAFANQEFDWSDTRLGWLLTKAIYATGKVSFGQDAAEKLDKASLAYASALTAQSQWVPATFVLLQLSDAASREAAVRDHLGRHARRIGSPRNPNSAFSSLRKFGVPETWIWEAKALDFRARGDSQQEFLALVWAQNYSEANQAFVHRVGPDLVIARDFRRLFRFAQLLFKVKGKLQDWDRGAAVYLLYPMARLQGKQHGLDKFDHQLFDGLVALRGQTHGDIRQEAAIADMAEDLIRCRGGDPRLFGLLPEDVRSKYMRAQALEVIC
tetrameric Y-complex fragment Nup120-Nup145C-Sec13-Nup85 (NPC-II) (Myceliophthora thermophila), sequence (partner, as listed by the source, chain 3 of 3): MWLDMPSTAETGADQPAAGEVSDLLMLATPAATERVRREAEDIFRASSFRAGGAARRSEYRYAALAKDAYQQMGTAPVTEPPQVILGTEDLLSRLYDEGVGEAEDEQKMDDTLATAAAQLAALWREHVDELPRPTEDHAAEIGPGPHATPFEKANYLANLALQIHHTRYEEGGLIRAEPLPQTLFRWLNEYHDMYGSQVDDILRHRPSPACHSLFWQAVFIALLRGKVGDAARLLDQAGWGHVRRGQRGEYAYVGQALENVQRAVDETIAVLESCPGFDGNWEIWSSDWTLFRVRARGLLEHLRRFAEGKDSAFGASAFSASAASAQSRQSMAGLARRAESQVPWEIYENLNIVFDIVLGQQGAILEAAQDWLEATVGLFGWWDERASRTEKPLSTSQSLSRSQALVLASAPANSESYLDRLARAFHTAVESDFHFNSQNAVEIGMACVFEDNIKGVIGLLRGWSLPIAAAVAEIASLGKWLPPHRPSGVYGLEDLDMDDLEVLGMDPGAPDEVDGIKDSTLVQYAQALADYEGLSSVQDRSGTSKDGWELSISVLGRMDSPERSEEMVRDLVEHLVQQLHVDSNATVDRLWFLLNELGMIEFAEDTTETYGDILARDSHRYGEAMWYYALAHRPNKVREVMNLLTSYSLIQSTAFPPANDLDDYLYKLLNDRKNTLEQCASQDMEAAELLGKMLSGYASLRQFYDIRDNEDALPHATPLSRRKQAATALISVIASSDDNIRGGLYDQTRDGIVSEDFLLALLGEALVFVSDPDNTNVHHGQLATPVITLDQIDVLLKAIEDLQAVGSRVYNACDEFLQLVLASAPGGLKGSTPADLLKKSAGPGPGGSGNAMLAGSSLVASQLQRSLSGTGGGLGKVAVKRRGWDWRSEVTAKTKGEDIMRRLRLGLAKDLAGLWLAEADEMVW

- stoichiometry N: 1
Substance: tetrameric Nup82-Nup145N-Nup159-Nsp1 complex (NPC-I)
